Earlier results in US20200069786A1, “COMPOSITION AND PROCESS FOR PREPARING VACCINE” (TREOS BIO ZRT., priority 2018, published 2020).
Like-named read-outs stand apart in the source and are kept apart here.

B1: ADAM2 (protein, UniProt Q99965 175-735, looked up)
Disintegrin and …: DFAKYIEMHVIVEKQLYNHMGSDTTVVAQKVFQLIGLTNAIFVSFNITIILSSLELWIDENKIATTGEANELLHTFLRWKTSYLVLRPHDVAFLLVYREKSNYVGATFQGKMCDANYAGGVVLHPRTISLESLAVILAQLLSLSMGITYDDINKCQCSGAVCIMNPEAIHFSGVKIFSNCSFEDFAHFISKQKSQCLHNQPRLDPFFKQQAVCGNAKLEAGEECDCGTEQDCALIGETCCDIATCRFKAGSNCAEGPCCENCLFMSKERMCRPSFEECDLPEYCNGSSASCPENHYVQTGHPCGLNQWICIDGVCMSGDKQCTDTFGKEVEFGPSECYSHLNSKTDVSGNCGISDSGYTQCEADNLQCGKLICKYVGKFLLQIPRATIIYANISGHLCIAVEFASDHADSQKMWIKDGTSCGSNKVCRNQRCVSSSYLGYDCTTDKCNDRGVCNNKKHCHCSASYLPPDCSVQSDLWPGGSIDSGNFPPVAIPARLPERRYIENIYHSKPMRWPFFLFIPFFIIFCVLIAIMVKVNFQRKKWRTEDYSSDEQPESESEPKG
B2: MAGE-A2 (protein, UniProt P43356 1-314, looked up)
Melanoma-associated antigen 2: MPLEQRSQHCKPEEGLEARGEALGLVGAQAPATEEQQTASSSSTLVEVTLGEVPAADSPSPPHSPQGASSFSTTINYTLWRQSDEGSSNQEEEGPRMFPDLESEFQAAISRKMVELVHFLLLKYRAREPVTKAEMLESVLRNCQDFFPVIFSKASEYLQLVFGIEVVEVVPISHLYILVTCLGLSYDGLLGDNQVMPKTGLLIIVLAIIAIEGDCAPEEKIWEELSMLEVFEGREDSVFAHPRKLLMQDLVQENYLEYRQVPGSDPACYEFLWGPRALIETSYVKVLHHTLKIGGEPHISYPPLHERALREGEE
B3: SSX-3 (protein, UniProt Q99909 1-188, looked up)
Protein SSX3: MNGDDTFARRPTVGAQIPEKIQKAFDDIAKYFSKEEWEKMKVSEKIVYVYMKRKYEAMTKLGFKAILPSFMRNKRVTDFQGNDFDNDPNRGNQVQRPQMTFGRLQGIFPKIMPKKPAEEGNVSKEVPEASGPQNDGKQLCPPGKPTTSEKINMISGPKRGEHAWTHRLRERKQLVIYEEISDPEEDDE
B4: SSX-5 (protein, UniProt O60225 1-188, looked up)
Protein SSX5: MNGDDAFVRRPRVGSQIPEKMQKAFDDIAKYFSEKEWEKMKASEKIIYVYMKRKYEAMTKLGFKATLPPFMRNKRVADFQGNDFDNDPNRGNQVEHPQMTFGRLQGIFPKITPEKPAEEGNDSKGVPEASGPQNNGKQLRPSGKLNTSEKVNKTSGPKRGKHAWTHRVRERKQLVIYEEISDPQEDDE
B5: CCDC62 (protein, UniProt Q6P9F0 1-684, looked up)
Coiled-coil domain-containing …: MNPPAAFLAGRQNIGSEVEISTIEKQRKELQLLIGELKDRDKELNDMVAVHQQQLLSWEEDRQKVLTLEERCSKLEGELHKRTEIIRSLTKKVKALESNQMECQTALQKTQLQLQEMAQKATHSSLLSEDLEARNETLSNTLVELSAQVGQLQAREQALTTMIKLKDKDIIEAVNHIADCSGKFKMLEHALRDAKMAETCIVKEKQDYKQKLKALKIEVNKLKEDLNEKTTENNEQREEIIRLKQEKSCLHDELLFTVEREKRKDELLNIAKSKQERTNSELHNLRQIYVKQQSDLQFLNFNVENSQELIQMYDSKMEESKALDSSRDMCLSDLENNHPKVDIKREKNQKSLFKDQKFEAMLVQQNRSDKSSCDECKEKKQQIDTVFGEKSVITLSSIFTKDLVEKHNLPWSLGGKTQIEPENKITLCKIHTKSPKCHGTGVQNEGKQPSETPTLSDEKQWHDVSVYLGLTNCPSSKHPEKLDVECQDQMERSEISCCQKNEACLGESGMCDSKCCHPSNFIIEAPGHMSDVEWMSIFKPSKMQRIVRLKSGCTCSESICGTQHDSPASELIAIQDSHSLGSSKSALREDETESSSNKKNSPTSLLIYKDAPAFNEKASIVLPSQDDFSPTSKLQRLLAESRQMVTDLELSTLLPISHENLTGSATNKSEVPEESAQKNTFVSY
B6: XAGE-1 (protein, UniProt Q9HD64 1-81, looked up)
X antigen family member 1: MESPKKKNQQLKVGILHLGSRQKKIRIQLRSQCATWKVICKSCISQTPGINLDLGSGVKVKIIPKEEHCKMPEAGEEQPQV
B7: SPO11 (protein, UniProt Q9Y5K1 1-396, looked up)
Meiotic recombination protein …: MAFAPMGPEASFFDVLDRHRESLLAALRRGGREPPTGGSRLASSSEVLASIENIIQDIITSLARNEAPAFTIDNRSSWENIKFEDSVGLQMVSHCTTRKIKSDSPKSAQKFSLILKILSMIYKLVQSNTYATKRDIYYTDSQLFGNQTVVDNIINDISCMLKVSRRSLHILSTSKGLIAGNLRYIEEDGTKVNCTCGATAVAVPSNIQGIRNLVTDAKFVLIVEKDATFQRLLDDNFCNKLSPCIMITGKGVPDLNTRLLVKKLWDTFHVPVFTLVDADPHGIEIMCIYKYGSMSMSFEAHHLTVPAIRWLGLLPSDLKRLNVPKDSLIPLTKRDQMKLDSILRRPYVTCQPFWRKEMEIMADSKMKAEIQALTFLSSDYLSRVYLPNKLKFGGWI
B8: MORC1 (protein, UniProt Q86VD1 1-984, looked up)
MORC family CW-type zinc …: MDDRYPALQRAQLRLDFIHANSTTHSFLFGALAELLDNARDAGAERLDVFSVDNEKLQGGFMLCFLDDGCGMSPEEASDIIYFGRSKKRLSTLKFIGQYGNGLKSGSMRIGKDFILFTKKEETMTCVFFSQTFCEEESLSEVVVPMPSWLIRTRESVTDDPQKFAMELSIIYKYSPFKTEAELMQQFDVIYGKCGTLLVIYNLKLLLNGEPELDVKTDKEDILMAGALEDFPARWSFRAYTSVLYFNPWMRIFIQAKRVKTKHLCYCLYRPRKYLYVTSSFKGAFKDEVKKAEEAVKIAESILKEAQIKVNQCDRTSLSSAKDVLQRALEDVEAKQKNLKEKQRELKTARTLSLFYGVNVENRSQAGMFIYSNNRLIKMHEKVGSQLKLKSLLGAGVVGIVNIPLEVMEPSHNKQEFLNVQEYNHLLKVMGQYLVQYCKDTGINNRNLTLFCNEFGYQNDIDVEKPLNSFQYQRRQAMGIPFIIQCDLCLKWRVLPSSTNYQEKEFFDIWICANNPNRLENSCHQVECLPSIPLGTMSTISPSKNEKEKQLRESVIKYQNRLAEQQPQPQFIPVDEITVTSTCLTSAHKENTKTQKIRLLGDDLKHESLSSFELSASRRGQKRNIEETDSDVEYISETKIMKKSMEEKMNSQQQRIPVALPENVKLAERSQRSQIANITTVWRAQPTEGCLKNAQAASWEMKRKQSLNFVEECKVLTEDENTSDSDIILVSDKSNTDVSLKQEKKEIPLLNQEKQELCNDVLAMKRSSSLPSWKSLLNVPMEDVNLSSGHIARVSVSGSCKVASSPASSQSTPVKETVRKLKSKLREILLYFFPEHQLPSELEEPALSCELEQCPEQMNKKLKMCFNQIQNTYMVQYEKKIKRKLQSIIYDSNTRGIHNEISLGQCENKRKISEDKLKNLRIKLALLLQKLQLGGPEGDLEQTDTYLEALLKEDNLLFQNNLNKVTIDARHRLPLEKNEKTSEN
B9: CRISP2 (protein, UniProt P16562 22-243, looked up)
Cysteine-rich secretory …: KDPAFTALLTTQLQVQREIVNKHNELRKAVSPPASNMLKMEWSREVTTNAQRWANKCTLQHSDPEDRKTSTRCGENLYMSSDPTSWSSAIQSWYDEILDFVYGVGPKSPNAVVGHYTQLVWYSTYQVGCGIAYCPNQDSLKYYYVCQYCPAGNNMNRKNTPYQQGTPCAGCPDDCDKGLCTNSCQYQDLLSNCDSLKNTAGCEHELLKEKCKATCLCENKIY

Tested on: TSA
[1] = TSA expression rate in Cervical cancer
[2] = TSA expression rate in LEUKEMIAS
[3] = TSA expression rate in LUNG cancer
[4] = TSA expression rate in MELANOMA
[5] = TSA expression rate in PROSTATE cancer
[6] = TSA expression rate in Esophageal
[7] = TSA expression rate in GASTRIC cancer
[8] = TSA expression rate in HEAD and NECK
[9] = TSA expression rate in PEDIATRIC

Molecule | TSA Expression Rate (ER) (BREAST) | TSA Expression Rate (ER) (OVARIAN) | Expression Rate (ER) % (TSA expression rate in CRC) | Expression Rate (ER) % [1] | Expression Rate (ER) % (TSA expression rate in Kidney) | Expression Rate (ER) % [2] | Expression Rate (ER) % [3] | Expression Rate (ER) % [4] | Expression Rate (ER) % [5] | TSA Expression Rate (ER) (BRAIN) | TSA Expression Rate (ER) (HCC) | TSA Expression Rate (ER) (LUNG) | TSA Expression Rate (ER) (THYROID) | Expression Rate (ER) % (TSA expression rate in BLADDER cancer) | Expression Rate (ER) % [6] | Expression Rate (ER) % [7] | Expression Rate (ER) % [8] | Expression Rate (ER) % [9] | TSA Expression Rate (ER) (PANCREATIC)
B1 | 0% | 0% | 0% | 0% | 9% | 6% | 1% | 3% | 25% |  |  |  |  |  |  |  |  |  | 
B2 |  | 7% | 18% |  | 7% | 11% |  | 62% | 18% | 28% | 25% | 40% | 9% | 25% | 53% | 31% | 38% | 60% | 
B3 | 0% | 0% | 0% |  | 0% | 4% |  |  |  | 0% |  |  | 0% |  |  |  |  |  | 0%
B4 | 0% | 0% | 2% |  | 0% | 24% | 4% | 5% |  | 0% | 37% |  | 0% |  |  | 0% | 7% |  | 
B5 |  | 0% | 13% |  | 25% |  |  |  | 22% |  | 0% |  |  |  | 21% | 7% | 12% |  | 
B6 | 58% | 5% |  |  |  |  |  | 7% |  | 18% | 33% | 25% |  |  |  |  | 40% | 53% | 
B7 | 0% | 0% | 0% | 33% | 0% |  | 0% | 6% | 0% | 12% |  |  | 0% |  |  |  | 0% |  | 
B8 | 0% | 14% | 0% | 0% | 0% |  | 18% | 19% | 0% |  |  |  | 0% |  |  |  |  |  | 
B9 | 15% | 14% | 0% | 17% | 14% |  |  | 6% | 38% |  |  | 29% | 0% |  |  |  | 11% |  | 
